Assay results published in the supplement of paper PMC10567573.

B1: DYRK1B (parent)
chain: YQGPGTRRLQEVLGVQTGGPGGRR
B2: NET1 (parent)
chain: IKRTIRVLDVNNQSFREQEEPSNK

Variants of: B1
Experiment: protein stability index of a GFP-peptide fusion (GPS, HEK-293T) (PSI 1-6); higher = more stable
Conditions: c terminus: a fixed tail appended
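Note: lentivirally expressed fusions sorted by FACS into six bins by GFP to DsRed ratio, PSI derived from sequencing read proportions per bin multiplied by bin number.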

Protein stability index: each site, then its substitutions
G21: I 3.15 | D 3.88 | Q 3.4 | M 3.48 | L 3.18 | S 3.04 | Y 2.68 | T 2.98 | E 3.13 | A 3.25 | F 2.93 | R 3.32 | W 2.17 | V 2.2 | K 2.74 | N 3.04 | H 3.33 | P 3.17 | C 2.72
R24: E 3.67 | G 3.4 | A 3.23 | V 3.54 | Q 3.06 | C 3.18 | S 3.45 | H 3.17 | K 3.12 | T 3.02 | D 3.51 | P 3.45 | L 2.87 | W 2.73 | I 3.75 | F 2.49 | N 3.43 | Y 3.24 | M 2.5
R23: K 2.55 | N 3.29 | D 3.8 | W 2.22 | P 3.26 | E 3.32 | A 4.05 | F 2.37 | G 3.01 | I 2.75 | L 3.12 | V 2.88 | M 3.27 | C 2.87 | Q 3.38 | T 3.23 | S 2.59 | Y 2.67 | H 3.1
P20: W 2.02 | Y 2.77
G22: H 3.29 | T 3.35 | M 2.67 | N 3.44 | L 2.94 | I 3.75 | A 3.13 | Y 2.63 | W 3.01 | D 3.39 | E 3.4 | V 2.95 | K 2.51 | Q 3.48 | C 2.87 | S 3.05 | F 2.17 | P 3.48 | R 2.7

Variants of: B2
Experiment: as above
Conditions: c terminus: a fixed tail appended

Protein stability index, by site and new letter:
R3: A 3.48 | S 4.71 | E 4.92 | I 1.37 | P 4.57 | K 3.93 | C 2.69 | T 4.02 | L 1.9 | M 2.08 | D 4.81 | Q 4.44 | V 1.73 | N 4.86 | H 4.39 | G 4.1 | Y 2.19 | F 1.75 | W 1.49
T4: P 3.89 | G 3.41 | I 1.79 | M 3.3 | Y 3.09 | W 2.38 | C 3.51 | V 2.51 | Q 3.86 | S 4.09 | H 3.89 | N 4.13 | F 2.88 | R 3.99 | L 2.59 | K 3.75 | E 4.96 | D 4.51
I1: H 4.81 | D 4.58 | G 3.67 | T 4.49 | M 3.63 | N 3.61 | V 3.54 | R 3.73 | P 3.94 | L 3.27 | W 3.45 | Y 4.1 | C 4.76 | E 4.07 | S 3.99 | Q 3.69 | K 4.14 | F 4.03 | A 3.82
I5: L 2.94 | R 4.82 | A 4.53 | C 4.41 | S 4.56 | F 3.39 | P 3.78 | H 4.69 | Q 5.04 | D 4.91 | N 4.08 | E 5.05 | M 2.55 | K 4.75
K2: F 3.04 | Q 4.63 | A 3.74 | H 4.01 | C 4.05 | I 3.05 | W 3.11 | V 3.33 | G 4.51 | N 4.34 | M 3.75 | Y 2.6 | R 2.93 | S 3.29 | E 4.01 | D 4.83 | L 3.72 | P 4.47 | T 4.8
